Molecular target: endogenous Miro1 of COS7 cells (monkey (endogenous in COS7))
Test: co-IP; COS7 cells co-transfected with FLAG-TRAK1 plus Myc-DISC1 or Myc-DISC1-37W, or empty vectors; IP with Miro1 antibody (endogenous Miro1); for quantification IP buffer with 0.1% SDS

Chain of endogenous Miro1 of COS7 cells (monkey (endogenous in COS7)) (Q8IXI2 whole entry): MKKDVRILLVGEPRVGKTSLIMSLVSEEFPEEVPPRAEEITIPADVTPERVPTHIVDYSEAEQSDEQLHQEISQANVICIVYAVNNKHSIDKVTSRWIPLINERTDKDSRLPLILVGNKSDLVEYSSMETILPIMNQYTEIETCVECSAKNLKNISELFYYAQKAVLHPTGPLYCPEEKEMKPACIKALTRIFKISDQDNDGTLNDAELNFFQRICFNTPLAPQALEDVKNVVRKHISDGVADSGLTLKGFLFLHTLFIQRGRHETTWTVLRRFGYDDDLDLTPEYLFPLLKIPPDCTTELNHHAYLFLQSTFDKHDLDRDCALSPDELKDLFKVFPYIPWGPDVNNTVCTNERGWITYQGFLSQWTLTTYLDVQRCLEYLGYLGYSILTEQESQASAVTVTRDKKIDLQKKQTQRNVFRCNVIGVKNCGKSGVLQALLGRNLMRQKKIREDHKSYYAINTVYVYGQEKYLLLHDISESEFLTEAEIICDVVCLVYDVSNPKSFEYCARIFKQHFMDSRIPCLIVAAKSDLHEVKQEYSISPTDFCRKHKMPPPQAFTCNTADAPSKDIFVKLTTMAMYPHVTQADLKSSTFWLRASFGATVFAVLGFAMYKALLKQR

decrease of co-IP in cells expressing Myc-DISC1-37W against cells expressing Myc-DISC1: 20%
B1: FLAG-tagged TRAK1 (trafficking-protein-Kinesin-binding-1), aa 2-953, in COS7 (natural protein)
chain: ALVFQFGQPVRAQPLPGLCHGKLIRTNACDVCNSTDLPEVEIISLLEEQLPHYKLRADTIYGYDHDDWLHTPLISPDANIDLTTEQIEETLKYFLLCAERVGQMTKTYNDIDAVTRLLEEKERDLELAARIGQSLLKKNKTLTERNELLEEQVEHIREEVSQLRHELSMKDELLQFYTSAAEESEPESVCSTPLKRNESSSSVQNYFHLDSLQKKLKDLEEENVVLRSEASQLKTETITYEEKEQQLVNDCVKELRDANVQIASISEELAKKTEDAARQQEEITHLLSQIVDLQKKAKACAVENEELVQHLGAAKDAQRQLTAELRELEDKYAECMEMLHEAQEELKNLRNKTMPNTTSRRYHSLGLFPMDSLAAEIEGTMRKELQLEEAESPDITHQKRVFETVRNINQVVKQRSLTPSPMNIPGSNQSSAMNSLLSSCVSTPRSSFYGSDIGNVVLDNKTNSIILETEAADLGNDERSKKPGTPGTPGSHDLETALRRLSLRRENYLSERRFFEEEQERKLQELAEKGELRSGSLTPTESIMSLGTHSRFSEFTGFSGMSFSSRSYLPEKLQIVKPLEGSATLHHWQQLAQPHLGGILDPRPGVVTKGFRTLDVDLDEVYCLNDFEEDDTGDHISLPRLATSTPVQHPETSAHHPGKCMSQTNSTFTFTTCRILHPSDELTRVTPSLNSAPTPACGSTSHLKSTPVATPCTPRRLSLAESFTNTRESTTTMSTSLGLVWLLKERGISAAVYDPQSWDRAGRGSLLHSYTPKMAVIPSTPPNSPMQTPTSSPPSFEFKCTSPPYDNFLASKPASSILREVREKNVRSSESQTDVSVSNLNLVDKVRRFGVAKVVNSGRAHVPTLTEEQGPLLCGPPGPAPALVPRGLVPEGLPLRCPTVTSAIGGLQLNSGIRRNRSFPTMVGSSMQMKAPVTLTSGILMGAKLSKQTSLR
